This experiment deals with His-mATGL288-Str (expression product of pST44-HIS-SMT3-TEV-mATGL288-STR) (mouse) (UniProt Q8BJ56).
Sequence of His-mATGL288-Str (expression product of pST44-HIS-SMT3-TEV-mATGL288-STR) (mouse) (Q8BJ56 1-288): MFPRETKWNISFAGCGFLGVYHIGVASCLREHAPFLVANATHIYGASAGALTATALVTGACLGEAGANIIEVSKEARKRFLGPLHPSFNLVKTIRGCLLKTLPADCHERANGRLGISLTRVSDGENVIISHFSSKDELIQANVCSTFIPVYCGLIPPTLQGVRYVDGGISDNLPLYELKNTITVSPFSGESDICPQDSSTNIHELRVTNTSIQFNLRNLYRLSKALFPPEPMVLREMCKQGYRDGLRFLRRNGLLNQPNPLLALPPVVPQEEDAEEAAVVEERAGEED

Sequence of CGI-58 (expression product of pST44-SMT3-TEV-mCGI58-HIS) (Q9DBL9 whole entry): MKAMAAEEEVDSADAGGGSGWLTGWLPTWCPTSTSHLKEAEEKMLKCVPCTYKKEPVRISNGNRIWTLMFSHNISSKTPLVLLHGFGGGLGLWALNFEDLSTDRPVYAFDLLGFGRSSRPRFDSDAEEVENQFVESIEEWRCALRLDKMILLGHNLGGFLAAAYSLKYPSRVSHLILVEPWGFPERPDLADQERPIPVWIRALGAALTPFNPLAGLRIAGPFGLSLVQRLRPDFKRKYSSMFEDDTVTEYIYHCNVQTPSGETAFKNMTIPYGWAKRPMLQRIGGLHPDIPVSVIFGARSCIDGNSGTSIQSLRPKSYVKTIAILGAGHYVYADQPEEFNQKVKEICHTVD

“CGI-58 (expression product of pST44-SMT3-TEV-mCGI58-HIS) (from UniProt Q9DBL9 1-351) (natural protein)” returned a TAG hydrolase activity of His-mATGL288-Str coactivated by CGI-58 after storage at 4 °C, against fresh protein of 50 % loss; a TAG hydrolase activity of His-mATGL288-Str coactivated by CGI-58 within 10 days of storage at -80 °C (snap frozen, 10% glycerol), against fresh protein of 50 % loss; a TAG hydrolase activity of freshly purified His-mATGL288-Str, CGI-58-stimulated against basal (equimolar mCGI-58) of 10 fold; a TAG hydrolase activity upon CGI-58 coactivation of His-mATGL288-Str frozen in sucrose buffer at -80 °C, alone or as complex with CGI-58, against fresh protein of 40 % loss.
